Experimental data from patent US20140057807A1 (UNIVERSITY OF CHICAGO, published 2014).

Assays:
human Abl SH2 domain [1] = molecular target: T1, human Abl SH2 domain (human, UniProt P00519 112-232, limits assumed); experiment: method not given
T1 construct: domain: SH2 domain; poly-histidine tagged in selection; tag cleaved for SPR and crystals; also called Ab1SH2; SH2 domain of Abl kinase
T1 sequence (looked up): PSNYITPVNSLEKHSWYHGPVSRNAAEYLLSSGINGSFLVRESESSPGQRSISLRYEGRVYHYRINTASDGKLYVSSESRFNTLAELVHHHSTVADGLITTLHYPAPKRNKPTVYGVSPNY

human Abl SH2 domain [2] = molecular target: T1, human Abl SH2 domain; experiment: Kd (nM) column of the drawn table; the method for this clone is not stated (SH13 came directly from the phage display library)
[3] = molecular target: T2, yeast small ubiquitin-like modifier protein (yeast, UniProt Q12306 3-98 = SUMO); experiment: titration phage ELISA
T2 construct: GST fusion in most phage ELISAs, His-tagged or tag-cleaved elsewhere; also called ySUMO; yeast SUMO
T2 sequence (Q12306 3-98 limits assumed): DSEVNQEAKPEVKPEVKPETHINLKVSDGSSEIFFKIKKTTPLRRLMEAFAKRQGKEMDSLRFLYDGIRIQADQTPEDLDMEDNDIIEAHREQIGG
Protocol: hSUMO1-binding cradle molecules had varied ability to discriminate hSUMO1 and ySUMO as assessed by phage ELISA (FIGS. 25A and 26A).
For phage amplification, E. coli XL1-Blue cells transformed with the LacI containing plasmid pMCSG21 (Stols, et al., Protein Express. Purif. (2007) 53:396-403) (termed “XL21” hereafter) were used. Cradle molecule displaying phage were prepared by growing XL21 cells transfected with phagemid of individual clones in the presence of 0.2 mM IPTG and helper phage K07 (Koide, A., and Koide, S., supra, 2007; Sidhu, et al., supra, 2000). Cultures were then centrifuged and phage containing supernatant used for ELISA assays. All incubations were at room temperature. In all instances except for the phage titration experiment used to test hSUMO1-binding cradle molecule specificity (FIG. 26), wells of a 96-well Microlon© (Greiner) ELISA plate were treated with a 2 μg/mL solution of a GST-fusion of the appropriate target protein, or GST alone in 50 mM Tris Cl buffer containing 150 mM NaCl, pH 7.5 (TBS) and incubated for 1 hour followed by blocking with 0.5% BSA in TBS for 1 hour.

[4] = molecular target: T2, yeast small ubiquitin-like modifier …; experiment: titration phage ELISA: His-tagged target captured via BT-Tris-NTA on NeutrAvidin-coated wells, serial 5-fold dilutions of phage supernatant
In short: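 Phage ELISA with phage-containing supernatant from XL21 cells grown with 0.2 mM IPTG and helper phage K07. His-tagged target (50 nM) was complexed with BT-Tris NTA on NeutrAvidin-coated, BSA-blocked wells for 30 minutes. A 30% phage supernatant and serial 5-fold dilutions in TBS/0.5% BSA were incubated for 30 minutes at room temperature. Detection used anti-M13-HRP and TMB, quenched with H₂SO₄, with absorbance at 450 nm scaled to 1 cm path-length.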

[5] = molecular target: T2, yeast small ubiquitin-like modifier …; experiment: SPR
Description: Such high selectivity was unexpected, because the SIM-binding site is the most highly conserved surface between ySUMO and hSUMO proteins (FIG. 16A). […] Thus, it was expected that generating FnIII domain variants that bind to hSUMOs in a mode similar to the ySUMO-binding FnIII domain variants would yield clones with higher isoform selectivity toward hSUMOs.
(§1) Cradle molecules purified as described above were immobilized via His-tag to an NTA surface using a Biacore™ 2000 instrument so that the theoretical maximum response (Rₘₐₓ) from target binding was 100-200 RU. Target protein at varying concentrations was then flowed over the surface at a flow rate of 30 μL/min and the binding signal recorded. Fitting of kinetic traces was carried out using the BIAevaluation software. For equilibrium experiments, the equilibrium binding response was recorded for multiple target concentrations and fit to a simple 1:1 saturation binding curve.

[6] = molecular target: T2, yeast small ubiquitin-like modifier …; experiment: SPR, fit of the traces to a 1:1 binding model [panel D]
Protocol: as §1

[7] = molecular target: T2, yeast small ubiquitin-like modifier …; experiment: SPR (monobody on the chip via His-tag, target flowed); estimated Kd
Protocol: as §1

[8] = molecular target: T2, yeast small ubiquitin-like modifier …; experiment: SPR (Biacore 2000), monobody immobilised via His-tag on NTA surface, ySUMO flowed over it
Protocol: as §1

B1: SH13 (designed binder)
chain: VSSVPTKLEVVAATPTSLLISWDAPAVDFYVYLITYGETGGNSPVQEFTVPGSKSTATISGLSPGVDYTITVYGYSDSWNWPYSPISINYRT
notes: also called SH13 monobody
Kd (human Abl SH2 domain [1]): ~4000 nM | Kd (human Abl SH2 domain [2]): 6800 nM

B2: hS1MB-7 (designed binder)
chain: VSSVPTKLEVVAATPTSLLISWDASSSSVSYYEITYGETGGNSPVQEFTVPGSSSTATISGLSPGVDYTITVIAFYSHDDIYISDSPSSINYRT
fold weaker binding to ySUMO than to hSUMO1 [3]: ≥ 100 fold | binding result [4]: no binding

B3: ySMB-1 (designed binder)
chain: VSSVPTKLEVVAATPTSLLISWDASSSSVSYYRITYGETGGNSPVQEFTVPGSSSTATISGLSPGVDYTITVYAYYSYYDLYYSYSPSSINYRT
notes: it may hold only the diversified positions and not the whole FnIII domain; BC and DE loops are polyserine; also called monobody ySMB-1; FnIII domain variant ySMB-1
Kd [5]: 82 nM | koff [6]: 0.09 s⁻¹ | kon [6]: 1.1e+06 M⁻¹ s⁻¹ | Kd [7]: 72 nM | Kd [8]: 72 nM
